Test system: Bacillus subtilis
Experiment: cleaved RNA product abundance (RNA/gDNA barcode ratio) relative to median wild-type variant (ratio to wild type); higher = more accumulation of the downstream cleavage product
In short: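 Truncated aprE or tetM reporter mRNAs with barcoded RNase Y cleavage-site windows, mutagenized from oligos at a 9% error rate, sat in the B. subtilis chromosome. Cells grew in LB at 37°C from OD600 0.0003 to 0.3. Gel-selected cleaved RNA was reverse transcribed and its barcodes sequenced with those from genomic DNA, collapsing by UMI. Cleaved product abundance equals the RNA:gDNA barcode ratio per construct over the median construct with the unmutated site.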

[1] = experiment (reporter, strain, medium): exp 8a: truncated aprE reporter, strain BJT201 with 2% xylose (RNase J1 expressed), cleavage site: glnRA (positions -5 to +31 mutated)
[2] = experiment (reporter, strain, medium): exp 4a: truncated aprE reporter, strain BJT201 with 2% xylose (RNase J1 expressed), cleavage site: cggR-gapA (positions -7 to +36 mutated)
[3] = experiment (reporter, strain, medium): exp 2b: truncated aprE reporter, strain BJT200, cleavage site: cggR-gapA (positions -7 to +36 mutated)

| Sequence | cleaved RNA product abundance [1] | cleaved RNA product abundance [2] | cleaved RNA product abundance [3] |
| --- | --- | --- | --- |
| CGACATGTCCCGCTTCTTTCATTAATCCGTTAGCAACTGTTTTCCTAAATACATTTACCTTTTAAGAGGAGGAAT | 0.23 | – | – |
| CGACATGTCCCGCTTCTTTCATTAATTCGTTAGCAAATGTTTTGCAATATACATTTACCTTTTAAGAGGAGGAAT | 0.563 | – | – |
| ACAGACGAAGGAGCCGCAAAGAAGTTATTAAGGGATGAATAATCCCTCAATACAAATACCTCTCACTTATTTAAA | – | 0.0316 | – |
| CGACATGTCCCGCTTCTTTCATTAATCCGTTAGCAACTAATTTGCTATATACATTTACCTTTTAAGAGGAGGAAT | 1.85 | – | – |
| ACAGACGAAGGAGCCGCAAAGAAGTTATTAAGGGATGTATAATCCATCAATATAAATATCTCTCACTTATTTAAA | – | 0.238 | 0.175 |
| ACAGACGAAGGAGCCGCAAAGAAGTTATTAAGGTATGAATGATCCCTCAATATAAATATCTCTCACTTATTTAAA | – | 0.0732 | 0.0901 |
| ACAGACGAAGGAGCCGCAAAGAAGTTAGTAAGCGATGAATAATCCCTCAATATAAATATCTCTCACTTATTTAAA | – | 0.0715 | – |
| ACAGACGAAGGAGCCGCAAAGAACTTATTATGGGATGAATAATCCCTCAATATAAATATCTCTCACTTATTTAAA | – | 0.233 | – |
| ACAGACGAAGGAGCCGCAAAGAAATTATTAAGGGATGAATAATCCCTCAACATAAATATCTCTCACTTATTTAAA | – | 0.234 | – |
| ACAGACGAAGGAGCCGCAAACAAGTTATTAAGGGATCAATAATCCCTCAATATAAATATCTCTCACTTATTTAAA | – | 0.443 | – |
| CGACATGTCCCGCTTCTTTCATTAATCCGTTAACAACTGTTTTGCTATACACATTTACCTTTTAAGAGGAGGAAT | 0.162 | – | – |
| CGACATGTCCCGCTTCTTTCATTAATCGGTTAGCAACTGTTTTGCTATATACATTAACCTTTTAAGAGGAGGAAT | 1.51 | – | – |
| CGACATGTCCCGCTTCTTTCATTAATCCGTTAACACCTGTTTTGCTATATACATTTACCTTTTAAGAGGAGGAAT | 0.258 | – | – |
| CGACATGTCCCGCTTCTTTCATTAATCCGTTAGCAACTGTTTTGCTATATTAATTTACCTTTTAAGAGGAGGAAT | 0.236 | – | – |
| ACAGACGAAGGAGCCGCAAAGAAGTTATTAAGGGATTAATAATCCCTCAATATAAATTTCTCTCACTTATTTAAA | – | 0.57 | 0.686 |
| CGACATGTCCCGCTTCTTTCATTAGTCCGTTAGCAACTGTTTTGCTATATACATTTACCTTTTAAGAGGAGGAAT | 0.767 | – | – |
| ACAGACGAAGGAGCCGCAAATTAGTTATTAAGGGATGAATAATCCCTCAATATAAATATCTCTCACTTATTTAAA | – | 0.919 | – |
| CGACATGTCCCGCTTCTTTCATTAATACGTTATCAACTGTTTTGCTATATACATTTACCTTTTAAGAGGAGGAAT | 0.281 | – | – |
| ACAGACGAAGGAGCCGCAAAGAAGTTATTAAGGGATGAATCATCCCTCAATATAAATAACTCTCACTTATTTAAA | – | 0.573 | – |
| ACAGACGAAGGAGCCGCAAAGAAGTTATTACGGGATGAAAAATCCCTCAATATAAATATCTCTCACTTATTTAAA | – | 0.321 | 0.223 |
| ACAGACGAAGGAGCCGCAAAGAAGTTATTAAGGGATGAATAATCCCTCAATATAAATTATCTCTCACTTATTTAA | – | 0.975 | – |
| ACAGACGAAGGAGCCGCAAAGAAGATATTAAGGGATGAATAATCCCTCAATATAAATGTCTCTCACTTATTTAAA | – | 0.393 | 0.338 |
| CGACATGTCCCGCTTCTTTCATTACTCCGTTTGCAACTGTTTTGCTATATACATTTACCTTTTAAGAGGAGGAAT | 0.667 | – | – |
| CGACATGTCCCGCTTCTTTCATTAATCCGTCAGAAACTGTTTTGCTATATACATTTACCTTTTAAGAGGAGGAAT | 0.185 | – | – |

| Sequence | cleaved RNA product abundance [1] | cleaved RNA product abundance [2] | cleaved RNA product abundance [3] |
| --- | --- | --- | --- |
| CGACATGTCCCGCTTCTTTCATTAATCAGTTAGCATCTGTTTTGCTATATACATTTACCTTTTAAGAGGAGGAAT | 0.725 | – | – |
| CGACATGTCCCGCTTCTTTCATTAATCTGTTAGCAATTGTTTTGCTATATACATTTACCTTTTAAGAGGAGGAAT | 1.59 | – | – |
| ACAGACGAAGGAGCCGCAAATAAATTATTAAGGGAAGAATAATCCCTCAATATAAATATCTCTCACTTATTTAAA | – | 0.369 | – |
| CGACATGTCCCGCTTCTTTCATTAATCCGTTAGCAACTTTTTCGCTATATACATTTACCTTTTAAGAGGAGGAAT | 0.662 | – | – |
| ACAGACGAAGGAGCCGCAAAGAAGTTATTAAGGGATGAATAATACCTCAATTTAAATATCTCTCACTTATTTAAA | – | 0.0904 | 0.0845 |
| CGACATGTCCCGCTTCTTTCATTATTCCGTTAGCAGCTGTTTTGCTATATACATTTACCTTTTAAGAGGAGGAAT | 1.16 | – | – |
| ACAGACGAAGGAGCCGCTAAGAAATTATTAAGGGATGAATAATCCCTCAATATAAATATCTCTCACTTATTTAAA | – | – | 0.556 |
| CGACATGTCCCGCTTCTTTCATTAATCCGTTAGCATCTGTTTTGCTATATACATATACCTTTTAAGAGGAGGAAT | 0.727 | – | – |
| ACAGACGAAGGAGCCGCAAAGAAGTTATTAAGGGATGAATAATACCTCAATATAGATATCTCTCACTTATTTAAA | – | 0.147 | – |
| ACAGACGAAGGAGCCGCAAAGAAGTTAATAAGGGATGAATAATCCCTCAATATACATATCTCTCACTTATTTAAA | – | 0.313 | – |
| ACAGACGAAGGAGCCGCAAGGAAGTTATTAAGGGATGAATAATCCTTCAATATAAATATCTCTCACTTATTTAAA | – | 0.43 | – |
| CGACATGTCCCGCTTCTTTCATTAATCCGTTAGCAACTGTTTTGCTATATACATTTAACGTTTAAGAGGAGGAAT | 1.13 | – | – |
| CGACATGTCCCGCTTCTTTCATTAATCCGTTAGCAATTATTTTGCTATATACATTTACCTTTTAAGAGGAGGAAT | 1.14 | – | – |
| ACAGACGAAGGAGCCGCAAAGAAGTTATTAAAGGATGAATAATCCATCAATATAAATATCTCTCACTTATTTAAA | – | 0.178 | 0.141 |
| CGACATGTCCCGCTTCTTTCATTAATCCGTTAGCAACTGTTTTGCCATATACACTTACCTTTTAAGAGGAGGAAT | 0.161 | – | – |
| CGACATGTCCCGCTTCTTTCATTATTCCGTTAGCAACTGTTTTGCTATATACTTTTACCTTTTAAGAGGAGGAAT | 0.815 | – | – |
| ACAGACGAAGGAGCCGCAAAGAAGTTATTAAGTTATGAATAATCCGTCAATATAAATATCTCTCACTTATTTAAA | – | – | 0.078 |
| CGACATGTCCCGCTTCTTTCATTAATCCGTTAGCAAGTGTTTTGCTAAATACATTTACCTTTTAAGAGGAGGAAT | 0.596 | – | – |
| ACAGACGAAGGAGCCGCAATGAAGTTACTAAGGGATGAATAATCCCTCAATATAAATATCTCTCACTTATTTAAA | – | 0.249 | – |
| ACAGACGAAGGAGCCGCAAAGAAGTTATTTAGGGATGAAGAATCCCTCAATATAAATATCTCTCACTTATTTAAA | – | 0.607 | – |
| CGACATGTCCCGCTTCTTTCATTAATCCGTTAGGAACTGTTTTGCTATATAGATTTACCTTTTAAGAGGAGGAAT | 0.191 | – | – |
| CGACATGTCCCGCTTCTTTCATTAATCCGTTAGCAAGTGTTTTGCTATAAACATTTACCTTTTAAGAGGAGGAAT | 0.659 | – | – |
| ACAGACGAAGGAGCCGCAAAGAAGTTATTAAGGGATGAATATTCCCTCCATATAAATATCTCTCACTTATTTAAA | – | 0.193 | – |
| CGACATGTCCCGCTTCTTTCATTAATTCGTTAGCAATTGTTTTGCTATATACATTTACCTTTTAAGAGGAGGAAT | 1.67 | – | – |
